Legend:
Assay in all cases: cell-based or functional assay
[1] = target: HIV-1 Env of pseudovirus 1054_07_TC4_1499 (HIV-1)
[2] = target: HIV-1 Env of pseudovirus 1394C9G1(Rev-) (HIV-1)
[3] = target: HIV-1 Env of pseudovirus 191955_A11 (HIV-1)
[4] = target: HIV-1 Env of pseudovirus 231966.c02 (HIV-1)
[5] = target: HIV-1 Env of pseudovirus 246F C1G (HIV-1)
[6] = target: HIV-1 Env of pseudovirus 62357_14_D3_4589 (HIV-1)
[7] = target: HIV-1 Env of pseudovirus 6244_13_B5_4576 (HIV-1)
[8] = target: HIV-1 Env of pseudovirus 6480.v4.c25 (HIV-1)
[9] = target: HIV-1 Env of pseudovirus 6540.v4.c1 (HIV-1)
[10] = target: HIV-1 Env of pseudovirus 6952.v1.c20 (HIV-1)
[11] = target: HIV-1 Env of pseudovirus BJOX010000.06.2 (HIV-1)
[12] = target: HIV-1 Env of pseudovirus BJOX025000.01.1 (HIV-1)
[13] = target: HIV-1 Env of pseudovirus C1080.c03 (HIV-1)
[14] = target: HIV-1 Env of pseudovirus C3347.c11 (HIV-1)
[15] = target: HIV-1 Env of pseudovirus C4118.c09 (HIV-1)
[16] = target: HIV-1 Env of pseudovirus CAP45.2.00.G3 (HIV-1)
[17] = target: HIV-1 Env of pseudovirus CNE20 (HIV-1)
[18] = target: HIV-1 Env of pseudovirus CNE30 (HIV-1)
[19] = target: HIV-1 Env of pseudovirus CNE5 (HIV-1)
[20] = target: HIV-1 Env of pseudovirus CNE58 (HIV-1)
[21] = target: HIV-1 Env of pseudovirus Ce0682_E4 (HIV-1)
[22] = target: HIV-1 Env of pseudovirus Ce2010_F5 (HIV-1)
[23] = target: HIV-1 Env of pseudovirus Du156.12 (HIV-1)
[24] = target: HIV-1 Env of pseudovirus Du172.17 (HIV-1)
[25] = target: HIV-1 Env of pseudovirus Du422.1 (HIV-1)
[26] = target: HIV-1 Env of pseudovirus P0402_c2_11 (HIV-1)
[27] = target: HIV-1 Env of pseudovirus Q842.d12 (HIV-1)
[28] = target: HIV-1 Env of pseudovirus R3265.c06 (HIV-1)
[29] = target: HIV-1 Env of pseudovirus SC422661.8 (HIV-1)
[30] = target: HIV-1 Env of pseudovirus T257-31 (HIV-1)
[31] = target: HIV-1 Env of pseudovirus THRO4156.18 (HIV-1)
[32] = target: HIV-1 Env of pseudovirus X1193_c1 (HIV-1)
[33] = target: HIV-1 Env of pseudovirus X1632_S2_B10 (HIV-1)
[34] = target: HIV-1 Env of pseudovirus ZM109F.PB4 (HIV-1)
[35] = target: HIV-1 Env of pseudovirus ZM214M.PL15 (HIV-1)
[36] = target: HIV-1 Env of pseudovirus 0260.v5.c36 (HIV-1)
[37] = target: HIV-1 Env of pseudovirus T251-18 (HIV-1)

Substance: 8ANC195 (antibody)
- neutralization IC50 [1]: 1.02 µg/mL
- neutralization IC80 [1]: 6.75 µg/mL
- neutralization IC50 [2]: > 50 µg/mL
- neutralization IC80 [2]: > 50 µg/mL
- neutralization IC50 [3]: > 50 µg/mL
- neutralization IC80 [3]: > 50 µg/mL
- IC50, titer in TZM.bl cells [4]: 0.54 µg/mL
- IC80, titer in TZM.bl cells [4]: 2.98 µg/mL
- neutralization IC50 [5]: 12.8 µg/mL
- neutralization IC80 [5]: > 50 µg/mL
- neutralization IC50 [6]: > 50 µg/mL
- neutralization IC80 [6]: > 50 µg/mL
- neutralization IC50 [7]: > 50 µg/mL
- neutralization IC80 [7]: > 50 µg/mL
- IC50, titer in TZM.bl cells [8]: 0.16 µg/mL
- IC80, titer in TZM.bl cells [8]: 1.13 µg/mL
- IC50, titer in TZM.bl cells [9]: > 50 µg/mL
- IC80, titer in TZM.bl cells [9]: > 50 µg/mL
- IC50, titer in TZM.bl cells [10]: 1.38 µg/mL
- IC80, titer in TZM.bl cells [10]: 7.22 µg/mL
- IC50, titer in TZM.bl cells [11]: 0.85 µg/mL
- IC80, titer in TZM.bl cells [11]: 5.84 µg/mL
- IC50, titer in TZM.bl cells [12]: 4.96 µg/mL
- IC80, titer in TZM.bl cells [12]: > 50 µg/mL
- IC50, titer in TZM.bl cells [13]: 0.17 µg/mL
- IC80, titer in TZM.bl cells [13]: 1.12 µg/mL
- IC50, titer in TZM.bl cells [14]: > 50 µg/mL
- IC80, titer in TZM.bl cells [14]: > 50 µg/mL
- IC50, titer in TZM.bl cells [15]: 0.2 µg/mL
- IC80, titer in TZM.bl cells [15]: 0.71 µg/mL
- neutralization IC50 [16]: 28.3 µg/mL
- neutralization IC80 [16]: > 50 µg/mL
- neutralization IC50 [17]: 0.5 µg/mL
- neutralization IC80 [17]: 3.19 µg/mL
- neutralization IC50 [18]: 7.52 µg/mL
- neutralization IC80 [18]: 40.5 µg/mL
- IC50, titer in TZM.bl cells [19]: 2.12 µg/mL
- IC80, titer in TZM.bl cells [19]: 9.67 µg/mL
- neutralization IC50 [20]: > 50 µg/mL
- neutralization IC80 [20]: > 50 µg/mL
- neutralization IC50 [21]: 0.2 µg/mL
- neutralization IC80 [21]: 1.29 µg/mL
- neutralization IC50 [22]: > 50 µg/mL
- neutralization IC80 [22]: > 50 µg/mL
- neutralization IC50 [23]: 0.22 µg/mL
- neutralization IC80 [23]: 1.56 µg/mL
- neutralization IC50 [24]: > 30 µg/mL
- neutralization IC80 [24]: > 30 µg/mL
- neutralization IC50 [25]: > 50 µg/mL
- neutralization IC80 [25]: > 50 µg/mL
- IC50, titer in TZM.bl cells [26]: 0.62 µg/mL
- IC80, titer in TZM.bl cells [26]: 6.35 µg/mL
- neutralization IC50 [27]: > 30 µg/mL
- neutralization IC80 [27]: > 30 µg/mL
- IC50, titer in TZM.bl cells [28]: 50 µg/mL
- IC80, titer in TZM.bl cells [28]: > 50 µg/mL
- neutralization IC50 [29]: 0.29 µg/mL
- neutralization IC80 [29]: 4.67 µg/mL
- neutralization IC50 [30]: 0.32 µg/mL
- neutralization IC80 [30]: 3.89 µg/mL
- neutralization IC50 [31]: > 50 µg/mL
- neutralization IC80 [31]: > 50 µg/mL
- IC50, titer in TZM.bl cells [32]: 0.27 µg/mL
- IC80, titer in TZM.bl cells [32]: 1.66 µg/mL
- IC50, titer in TZM.bl cells [33]: 0.47 µg/mL
- IC80, titer in TZM.bl cells [33]: 4.11 µg/mL
- neutralization IC50 [34]: > 30 µg/mL
- neutralization IC80 [34]: > 30 µg/mL
- neutralization IC50 [35]: 0.91 µg/mL
- neutralization IC80 [35]: 12.3 µg/mL

Substance: VRC07 (antibody)
- neutralization IC50 [36]: 0.448 µg/mL
- neutralization IC80 [36]: 1.62 µg/mL
- neutralization IC50 [1]: 0.239 µg/mL
- neutralization IC80 [1]: 1.46 µg/mL
- neutralization IC50 [2]: 0.112 µg/mL
- neutralization IC80 [2]: 0.368 µg/mL
- neutralization IC50 [3]: 0.978 µg/mL
- neutralization IC80 [3]: 4.82 µg/mL
- IC50, titer in TZM.bl cells [4]: 0.105 µg/mL
- IC80, titer in TZM.bl cells [4]: 0.471 µg/mL
- neutralization IC50 [5]: 0.286 µg/mL
- neutralization IC80 [5]: 1.04 µg/mL
- neutralization IC50 [6]: 0.075 µg/mL
- neutralization IC80 [6]: 0.256 µg/mL
- neutralization IC50 [7]: 0.065 µg/mL
- neutralization IC80 [7]: 0.23 µg/mL
- IC50, titer in TZM.bl cells [8]: 0.032 µg/mL
- IC80, titer in TZM.bl cells [8]: 0.134 µg/mL
- IC50, titer in TZM.bl cells [9]: > 50 µg/mL
- IC80, titer in TZM.bl cells [9]: > 50 µg/mL
- IC50, titer in TZM.bl cells [10]: 0.064 µg/mL
- IC80, titer in TZM.bl cells [10]: 0.181 µg/mL
- IC50, titer in TZM.bl cells [11]: 1.06 µg/mL
- IC80, titer in TZM.bl cells [11]: 10 µg/mL
- IC50, titer in TZM.bl cells [12]: 0.279 µg/mL
- IC80, titer in TZM.bl cells [12]: 2.29 µg/mL
- IC50, titer in TZM.bl cells [13]: 2.03 µg/mL
- IC80, titer in TZM.bl cells [13]: 8.25 µg/mL
- IC50, titer in TZM.bl cells [14]: 0.06 µg/mL
- IC80, titer in TZM.bl cells [14]: 0.38 µg/mL
- IC50, titer in TZM.bl cells [15]: 0.121 µg/mL
- IC80, titer in TZM.bl cells [15]: 0.444 µg/mL
- neutralization IC50 [16]: 0.355 µg/mL
- neutralization IC80 [16]: 3.09 µg/mL
- neutralization IC50 [17]: 0.06 µg/mL
- neutralization IC80 [17]: 0.129 µg/mL
- neutralization IC50 [18]: 0.326 µg/mL
- neutralization IC80 [18]: 1.08 µg/mL
- IC50, titer in TZM.bl cells [19]: 0.138 µg/mL
- IC80, titer in TZM.bl cells [19]: 0.524 µg/mL
- neutralization IC50 [20]: 0.11 µg/mL
- neutralization IC80 [20]: 0.298 µg/mL
- neutralization IC50 [21]: 0.039 µg/mL
- neutralization IC80 [21]: 0.239 µg/mL
- neutralization IC50 [22]: 0.131 µg/mL
- neutralization IC80 [22]: 0.48 µg/mL
- neutralization IC50 [23]: 0.041 µg/mL
- neutralization IC80 [23]: 0.149 µg/mL
- neutralization IC50 [24]: 0.796 µg/mL
- neutralization IC80 [24]: 3.66 µg/mL
- neutralization IC50 [25]: > 50 µg/mL
- neutralization IC80 [25]: > 50 µg/mL
- IC50, titer in TZM.bl cells [26]: 0.085 µg/mL
- IC80, titer in TZM.bl cells [26]: 0.422 µg/mL
- neutralization IC50 [27]: 0.015 µg/mL
- neutralization IC80 [27]: 0.051 µg/mL
- neutralization IC50 [29]: 0.054 µg/mL
- neutralization IC80 [29]: 0.175 µg/mL
- IC50, titer in TZM.bl cells [37]: 1.32 µg/mL
- IC80, titer in TZM.bl cells [37]: 6.49 µg/mL
- neutralization IC50 [30]: 0.421 µg/mL
- neutralization IC80 [30]: 3.17 µg/mL
- neutralization IC50 [31]: 2.4 µg/mL
- neutralization IC80 [31]: 12.2 µg/mL
- IC50, titer in TZM.bl cells [32]: 0.037 µg/mL
- IC80, titer in TZM.bl cells [32]: 0.249 µg/mL
- IC50, titer in TZM.bl cells [33]: 0.023 µg/mL
- IC80, titer in TZM.bl cells [33]: 0.107 µg/mL
- neutralization IC50 [34]: 0.112 µg/mL
- neutralization IC80 [34]: 0.389 µg/mL
- neutralization IC50 [35]: 0.198 µg/mL
- neutralization IC80 [35]: 1.42 µg/mL

From US20230002480A1
